Results from the RNAGym collection of RNA variant scans (doi:10.1073/pnas.2313332121).

B1: TPR t1 (parent)
chain: GACCAAUCUGCCCUCAGAGCUCGAGAACAUCUUCGGAUGCAGAGGAGGCAGGCUUCGGUGGCGCGAUAGCGCCAACGUCCUCAACCUCCAAUGCAUCCCACCACAUGAUGAUGCCUGAAGAGCCUUGGUUUUUUG

Variants of: B1
Experiment: polymerase ribozyme fitness, log enrichment relative to wild type (log ratio); higher = more active; in vitro selection for triplet polymerase activity
Procedure, shortened: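 Both subunits of a heterodimeric triplet polymerase ribozyme were given their own mutant library, built by PCR and transcribed. Each library was annealed with a biotinylated primer, the partner subunit and triplets, incubated frozen at −7 °C, and its extended constructs gel-excised, captured on streptavidin beads and amplified by RT-PCR, all in one round done in triplicate. Fitness is the logarithm of genotype enrichment relative to wild-type enrichment, with replicates averaged by inverse-variance weighting. That logarithm is base 2, and Illumina-sequenced genotypes needed ≥10 input reads and ≥1 read per output.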

In order of rising “polymerase ribozyme fitness (log ratio)” value:
1. G58C U96A C97A C104A G120U G128C  -7.29
2. C56U G69C C89U C123U  -7.26
3. C56A C104A A105U G110A  -7.24
4. U59A G77A A83C U92A C102U U109C C114U  -6.72
5. G57A C73U U78A C99U G128C  -6.66
6. U59C C97A U109C C114G G122U  -6.59
7. U59C G107C U112A U133G  -6.34
8. G60A A84U U87A G113U G122A  -5.92
9. G57C C62G C104A  -5.81
10. G58C A90U U109A C114U  -5.55
11. U59G C79A A103G  -5.54
12. C56U C62A  -5.47
13. C56A G69C C79U G113U G117A  -5.4
14. C56A C104U U106A U109A  -5.35
15. C56U C62G  -5.27
16. C56U C98A  -5.17
17. G58U G63A C82A C97U G110A  -4.64
18. G58A G77U U81A U87C C102A  -4.48
19. C56U C97A  -4.36
20. C56A G63C C102A  -4.29
21. C56A G63A G93A A100C C124U  -4.2
22. G57U A105G G113A  -4.1
23. C56U C97U A108G U116C U133G  -3.98
24. G60A G63U  -3.96
25. U59G C62A A95U  -3.76
26. C56U C72A G77A C97A  -3.63
27. G57U C88U A108G  -3.61
28. G57A G69A C76G  -3.53
29. G57A C70A  -3.43
30. C56U U96C C99U  -3.29
31. C56G G77U C115G  -3.16
32. C56U A105U G122A  -2.96
33. G58A U92A  -2.93
34. C56U C85G  -2.65
35. C56U C73U C76U  -2.54
36. G57A G63U  -2.43
37. G57A C94G  -2.36
38. U59C U78G C104U G117A  -2.35
39. C56A U129G  -2.29
40. C56G C89A  -2.22
41. C56A U112A G120A G135U  -2.22
42. C56G G63C C115A  -2.19
43. U59G C72A  -2.02
44. G57U A75G A83C G117A  -2
45. C56G C114A  -2
46. G57A G63U A75U U133A  -1.97
47. C56U C72G U129A  -1.89
48. C56U U59A C101U G122A  -1.81
49. C56A C115U  -1.67
50. C56U G128U  -1.65
51. C56G G110U G135C  -1.62
52. U59G C97U  -1.6
53. C56U G69U C79U G120A U130G  -1.59
54. U59C A66U  -1.57
55. G60A C101G  -1.57
56. U59C A66G  -1.47
57. C56G G60U  -1.44
58. C56U U81G C97U  -1.35
59. C56G C72U U130A  -1.31
60. C56G C72U C88U U106A U133A  -1.24
61. C56U A105C C123U  -1.18
62. U59C G127C  -1.09
63. C56G A66C  -1.08
64. G57U C94G  -1.04
65. C56A U112G  -0.994
66. U59C G60C  -0.854
67. C56G U132C  -0.811
68. C56U G93C  -0.768
69. C56U U125A  -0.748
70. G60A A100C C104U C123A  -0.726
71. G57A  -0.653
72. C56U A90U  -0.55
73. C56A G61C C62U C72G C89U  -0.49
74. G58C C73U C86G  -0.297
75. C56U G93A  -0.279
76. U59C A84C  -0.231
77. G57C  -0.176
78. G57U  -0.128
79. G60A C79U U130A  0.0156
80. C56U C123A U126A  0.177
81. G60A C62U U112G  0.38
82. G58C A111G  0.509
83. C56G C86U U112A A118G A119G  1.32
84. C56G C88A C115U A119G  1.4
